System: Escherichia coli TOP10
Assay: shrunken log2 fold change of peptide-encoding DNA abundance (4.5 h post-induction vs induction); higher = less antimicrobial activity (less host growth inhibition)
Conditions: time post-induction: 4.5 h; library: site-saturation at positions 5, 18, 19, 20
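Further: peptides expressed intracellularly from a pBAD plasmid library in pooled LB shake-flask culture, induced with 0.3% L-arabinose, DNA abundance read by NGS, three biological replicates, DESeq2 with apeglm shrinkage.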

Row | Sequence | shrunken log2 fold change
1 | RRIRIRPPRLPRPRPRPFFHPRP | -0.575
2 | RRIRSRPPRLPRPRPRPHFRPRP | -0.197
3 | RRIRKRPPRLPRPRPRPEDMPRP | 0.0387
4 | RRIRHRPPRLPRPRPRPSVTPRP | -0.453
5 | RRIRGRPPRLPRPRPRPYEAPRP | 0.045
6 | RRIRWRPPRLPRPRPRPMFMPRP | -0.209
7 | RRIRFRPPRLPRPRPRPVQAPRP | 0.183
8 | RRIRSRPPRLPRPRPRPNYPPRP | -0.195
9 | RRIRMRPPRLPRPRPRPQFHPRP | -0.237
10 | RRIRDRPPRLPRPRPRPCWPPRP | 0.073
11 | RRIRGRPPRLPRPRPRPAEFPRP | 0.69
12 | RRIRFRPPRLPRPRPRPSDSPRP | -0.21
13 | RRIRTRPPRLPRPRPRPNDAPRP | -0.036
14 | RRIRFRPPRLPRPRPRPWRDPRP | -0.136
15 | RRIRRRPPRLPRPRPRPVNEPRP | 0.196
16 | RRIRDRPPRLPRPRPRPAARPRP | 0.518
17 | RRIRHRPPRLPRPRPRPWDNPRP | 0.0451
18 | RRIRCRPPRLPRPRPRPNWGPRP | -0.0514
19 | RRIRWRPPRLPRPRPRPGYVPRP | -0.215
20 | RRIRCRPPRLPRPRPRPFHLPRP | -1.11
21 | RRIRLRPPRLPRPRPRPCRVPRP | -0.141
22 | RRIRDRPPRLPRPRPRPEIIPRP | 0.0753
23 | RRIRHRPPRLPRPRPRPRNVPRP | -0.00885
24 | RRIRERPPRLPRPRPRPVEHPRP | -0.0102
25 | RRIRLRPPRLPRPRPRPSNVPRP | -0.288

Row | Sequence | shrunken log2 fold change
26 | RRIRYRPPRLPRPRPRPECWPRP | 0.192
27 | RRIRVRPPRLPRPRPRPNREPRP | -0.0873
28 | RRIRERPPRLPRPRPRPMFVPRP | -0.285
29 | RRIRQRPPRLPRPRPRPMYVPRP | -0.0439
30 | RRIRVRPPRLPRPRPRPRECPRP | 0.175
31 | RRIRFRPPRLPRPRPRPEYAPRP | -0.14
32 | RRIRPRPPRLPRPRPRPTCQPRP | -0.0775
33 | RRIRTRPPRLPRPRPRPPSQPRP | 0.269
34 | RRIRDRPPRLPRPRPRPKVYPRP | -0.0329
35 | RRIRHRPPRLPRPRPRPSNGPRP | -0.605
36 | RRIRKRPPRLPRPRPRPFQYPRP | -0.284
37 | RRIRYRPPRLPRPRPRPCNPPRP | -0.217
38 | RRIRRRPPRLPRPRPRPDFMPRP | 0.335
39 | RRIRARPPRLPRPRPRPAVFPRP | 0.679
40 | RRIRFRPPRLPRPRPRPMNNPRP | -0.501
41 | RRIRLRPPRLPRPRPRPEYVPRP | 0.102
42 | RRIRNRPPRLPRPRPRPHDEPRP | -0.103
43 | RRIRSRPPRLPRPRPRPNLHPRP | -0.219
44 | RRIRIRPPRLPRPRPRPNEKPRP | -0.0849
45 | RRIRGRPPRLPRPRPRPNDDPRP | 0.349
46 | RRIRIRPPRLPRPRPRPVIKPRP | -0.918
47 | RRIRFRPPRLPRPRPRPDIFPRP | -0.396
48 | RRIRCRPPRLPRPRPRPLFSPRP | 2.05
49 | RRIRMRPPRLPRPRPRPHQSPRP | -0.318
50 | RRIRCRPPRLPRPRPRPKGHPRP | -0.17

Row | Sequence | shrunken log2 fold change
51 | RRIRDRPPRLPRPRPRPDLHPRP | -0.0715
52 | RRIRKRPPRLPRPRPRPFMRPRP | 0.24
53 | RRIRPRPPRLPRPRPRPQQPPRP | 0.132
54 | RRIRQRPPRLPRPRPRPRGIPRP | -0.107
55 | RRIRQRPPRLPRPRPRPSLKPRP | -0.235
56 | RRIRNRPPRLPRPRPRPDPIPRP | -0.143
57 | RRIRHRPPRLPRPRPRPVCKPRP | -0.14
58 | RRIRDRPPRLPRPRPRPDYTPRP | -0.276
59 | RRIRARPPRLPRPRPRPFRDPRP | -0.169
60 | RRIRNRPPRLPRPRPRPATQPRP | -0.0108
61 | RRIRHRPPRLPRPRPRPTICPRP | -0.41
62 | RRIRPRPPRLPRPRPRPEKRPRP | 0.0688
63 | RRIRGRPPRLPRPRPRPDNPPRP | 0.0274
64 | RRIRCRPPRLPRPRPRPMPMPRP | -0.174
65 | RRIRSRPPRLPRPRPRPKVFPRP | -0.063
66 | RRIRQRPPRLPRPRPRPDNKPRP | -0.532
67 | RRIRTRPPRLPRPRPRPVKVPRP | 0.00854
68 | RRIRNRPPRLPRPRPRPIFQPRP | -0.0287
69 | RRIRDRPPRLPRPRPRPTMYPRP | -0.107
70 | RRIRKRPPRLPRPRPRPTEMPRP | 0.25
71 | RRIRTRPPRLPRPRPRPWSGPRP | -0.187
72 | RRIRYRPPRLPRPRPRPQTIPRP | -0.0196
73 | RRIRMRPPRLPRPRPRPPCWPRP | 0.162
74 | RRIRQRPPRLPRPRPRPTHSPRP | 0.415
75 | RRIRYRPPRLPRPRPRPLTSPRP | -0.853

Row | Sequence | shrunken log2 fold change
76 | RRIRWRPPRLPRPRPRPNYCPRP | -0.113
77 | RRIRTRPPRLPRPRPRPMVEPRP | 0.0887
78 | RRIRLRPPRLPRPRPRPNCQPRP | 0.0269
79 | RRIRIRPPRLPRPRPRPWNLPRP | 0.0133
80 | RRIRMRPPRLPRPRPRPSMHPRP | 0.377
81 | RRIRIRPPRLPRPRPRPNTRPRP | -0.507
82 | RRIRIRPPRLPRPRPRPQVRPRP | -0.223
83 | RRIRRRPPRLPRPRPRPHDDPRP | 0.341
84 | RRIRLRPPRLPRPRPRPRQDPRP | 0.152
85 | RRIRMRPPRLPRPRPRPKIRPRP | -0.0101
86 | RRIRGRPPRLPRPRPRPWNPPRP | -0.448
87 | RRIRFRPPRLPRPRPRPYVQPRP | -0.0133
88 | RRIRSRPPRLPRPRPRPGTHPRP | -0.146
89 | RRIRNRPPRLPRPRPRPAPAPRP | 0.959
90 | RRIRKRPPRLPRPRPRPWIQPRP | -0.01
91 | RRIRARPPRLPRPRPRPRDHPRP | 0.158
92 | RRIRSRPPRLPRPRPRPPCCPRP | -0.107
93 | RRIRTRPPRLPRPRPRPWNYPRP | -0.567
94 | RRIRIRPPRLPRPRPRPHYWPRP | -0.85
95 | RRIRRRPPRLPRPRPRPMPAPRP | 0.203
96 | RRIRIRPPRLPRPRPRPRHVPRP | -0.163
97 | RRIRVRPPRLPRPRPRPTRMPRP | 0.0492
98 | RRIRCRPPRLPRPRPRPKELPRP | -0.000896
99 | RRIRHRPPRLPRPRPRPGYFPRP | -0.0725
100 | RRIRTRPPRLPRPRPRPGRVPRP | 0.744

Row | Sequence | shrunken log2 fold change
101 | RRIRRRPPRLPRPRPRPCPGPRP | -0.196
102 | RRIRYRPPRLPRPRPRPAVAPRP | 0.159
103 | RRIRTRPPRLPRPRPRPHLSPRP | -0.0793
104 | RRIRCRPPRLPRPRPRPMGIPRP | 0.00755
105 | RRIRRRPPRLPRPRPRPHCHPRP | -0.134
106 | RRIRCRPPRLPRPRPRPVELPRP | 0.103
107 | RRIRFRPPRLPRPRPRPRYLPRP | -0.0779
108 | RRIRGRPPRLPRPRPRPTGMPRP | 0.851
109 | RRIRERPPRLPRPRPRPETGPRP | -0.373
110 | RRIRIRPPRLPRPRPRPCQQPRP | -0.0169
111 | RRIRHRPPRLPRPRPRPDHDPRP | 0.0111
112 | RRIRARPPRLPRPRPRPQEMPRP | -0.0254
113 | RRIRERPPRLPRPRPRPHWSPRP | -0.71
114 | RRIRYRPPRLPRPRPRPNDDPRP | -0.0641
115 | RRIRFRPPRLPRPRPRPWHLPRP | -0.0307
116 | RRIRRRPPRLPRPRPRPFNDPRP | 0.0417
117 | RRIRTRPPRLPRPRPRPIQEPRP | 0.0124
118 | RRIRIRPPRLPRPRPRPIMRPRP | 0.139
119 | RRIRSRPPRLPRPRPRPNDNPRP | -0.57
120 | RRIRMRPPRLPRPRPRPERQPRP | 2.84
121 | RRIRIRPPRLPRPRPRPAHIPRP | -0.063
122 | RRIRLRPPRLPRPRPRPHIGPRP | -0.0255
123 | RRIRDRPPRLPRPRPRPSLRPRP | 0.188
124 | RRIRKRPPRLPRPRPRPKCDPRP | 0.405
125 | RRIRVRPPRLPRPRPRPNIAPRP | 0.249

— the supplement of paper PMC9112550, “Optimization of the antimicrobial peptide Bac7 by deep mutational scanning” (BMC Biology, 2022)
